Experimental data published in patent US20110318339A1 (FABRUS, published 2011).
Changes are numbered by the printed parent chain. Numbers in names are those of the source.

Assays:
[1] = biological target: T1, Recombinant Human DLL4 (Cat# 1506-D4/CF, R&D Systems) (human, UniProt Q9NR61 27-529); test: ELISA, DLL4 coated
T1 construct: Bought protein; also called rHuman DLL4; hDLL4

[2] = biological target: T2, recombinant human DLL4 (Cat# 1506-D4/CF, R&D Systems) (human, UniProt Q9NR61 27-529); test: ELISA, DLL4 coated, Fab 20 nM
T2 construct: Bought protein; also called hDLL4; rHuman DLL4
Experimental: (§1) The plate was blocked by adding 1% BSA in Tris-buffered Saline Tween (TBST) and incubating for 1 hour at room temperature followed by washing 2 times with 150 μl TBST. A Fab antibody was serially diluted in 1% BSA in PBS. A 50 μl aliquot of each serial dilution was added, in triplicate, to each well and the plate was incubated for 1 hour at room temperature followed by washing 2 times with TBST. 50 μl of either goat anti-human kappa HRP conjugated secondary antibody (Cat # A7164-1 mL, Sigma-Aldrich) or goat anti-human lambda HRP conjugated secondary antibody (Cat # L1645-1 ml, Sigma-Aldrich), diluted 1:1000 in 1% BSA in PBS, was added to each well and the plate was incubated for 30 minutes at room temperature followed by washing 3 times with 200 μl TBST. Finally, 50 μl TMB one-component reagent (Cat # TMBW-1000-01, BioFax) was added and allowed to develop for 2 minutes at room temperature. The reaction was immediately halted by the addition of 50 μl 0.5M H₂SO₄ and the absorbance at 450 nm was measured using an ELISA plate reader.

[3] = biological target: T2, recombinant human DLL4 (Cat# …); test: ELISA, DLL4 coated, Fab 0.74 nM
Experimental: as §1

[4] = biological target: T2, recombinant human DLL4 (Cat# …); test: ELISA, DLL4 coated, Fab 2.22 nM
Experimental: as §1

[5] = biological target: T2, recombinant human DLL4 (Cat# …); test: ELISA, DLL4 coated, Fab 6.67 nM
Experimental: as §1

[6] = biological target: T1, Recombinant Human DLL4 (Cat# …); test: ELISA, DLL4 coated, estimated from dose-dependent binding
Experimental: as §1

[7] = biological target: T2, recombinant human DLL4 (Cat# …); test: ELISA, DLL4 coated, Fab 5 nM
Experimental: as §1

[8] = biological target: T2, recombinant human DLL4 (Cat# …); test: ELISA, DLL4 coated, Fab 10 nM
Experimental: as §1

[9] = biological target: T2, recombinant human DLL4 (Cat# …); test: ELISA, DLL4 coated, Fab 1.3 nM
Experimental: as §1

[10] = biological target: T2, recombinant human DLL4 (Cat# …); test: ELISA, DLL4 coated, Fab 2.5 nM
Experimental: as §1

[11] = biological target: T2, recombinant human DLL4 (Cat# …); test: ELISA, DLL4 coated, Fab 0.16 nM
Experimental: as §1

[12] = biological target: T2, recombinant human DLL4 (Cat# …); test: ELISA, DLL4 coated, Fab 0.31 nM
Experimental: as §1

[13] = biological target: T2, recombinant human DLL4 (Cat# …); test: ELISA, DLL4 coated, Fab 0.63 nM
Experimental: as §1

[14] = biological target: T2, recombinant human DLL4 (Cat# …); test: SPR (ProteOn), hDLL4 amine-coupled on chip
Experimental: In this example, the binding affinities of selected anti-DLL4 Fabs to recombinant human DLL4 (hDLL4, Cat# 1506-D4/CF, R&D Systems) were analyzed using Surface Plasmon Resonance (SPR) (Biosensor Tools, Salt Lake City, Utah). The Fabs analyzed include germline-derived antibodies and germline-modified DLL4 antibodies. Recombinant hDLL4 was immobilized on a SPR chip using amine coupling at three different surface densities. The Fabs were serially diluted 3-fold, with an initial concentration of 1 μM. Binding studies were run on a ProteOn system using a GLM sensor chip in 10 mM HEPES, pH 7.4, 150 mM NaCl, 0.01% Tween-20, and 0.1 mg/ml BSA at 25° C. The response data from each surface was globally fit to determine the binding constants.

B1: Fab H:APFF & L:NDH (Fab, V domains shown)
VH: QVQLVQSGAEVKKPGASVKVSCKASGYTFTSYYMHWVRQAPGQGLEWMGIINPSGGSTSYAQKFQGRVTMTRDTSTSTVYMELSSLRSEDTAVYYCAREEYAPFSAEYFQFWGQGTLVTVSS
VL: EIVLTQSPATLSLSPGERATLSCRASQNVDHYLAWYQQKPGQAPRLLIYDASNRATGIPARFSGSGSGTDFTLTISSLEPEDFAVYYCQQRSNWPPWTFGQGTKVEIKR
notes: Fab, kappa light chain; also called VH1-46_IGHD6-6*01_IGHJ1*01 S102A/S103P/S104F/H111F & L6_IGKJ1*01 S28N/S30D/S31H
In the case of B1, the “fold increased affinity against Fab mutant APFF (H:APFF & L:wt)” value [1] is reported as 4 fold.

B2: Fab H:APFF VLTH & L:NDH LG (Fab, V domains shown)
VH: B1 VH with I51V, N52L, S54T, G56H
VL: B1 VL with S52L, A55G
notes: Fab, kappa light chain
For B2, the “fold increased binding affinity against the antibody mutants with heavy chain H:APFF ALTH” value [1] was roughly 10 fold.

B3: Fab VH1-46_IGHD6-6*01_IGHJ1*01 S102A/S103P/S104F/H111F I51V/N52L/S54T/G56H & L6_IGKJ1*01 S28N/S30D/S31H S52L/A55G (Fab, V domains shown)
VH: B1 VH with I51V, N52L, S54T, G56H
VL: B1 VL with S52L, A55G
notes: Fab made in E. coli: VH on CH1 with His6 and Flag tags (Plasmid A), VL on kappa CL (Plasmid C); also called H: APFF VLTH & L: NDH LG
For B3, the “ELISA absorbance at 450 nm” value [2] was 1.06 A450, the “ELISA absorbance at 450 nm” value [3] was 0.397 A450 and the “ELISA absorbance at 450 nm” value [4] was 0.755 A450. For the same binder, the “ELISA absorbance at 450 nm” value [5] was 0.916 A450.

B4: Fab H:APFF LTH & L:NDH (Fab, V domains shown)
VH: B1 VH with N52L, S54T, G56H
VL: B1 VL
notes: Fab, kappa light chain
With B4 the “fold increased binding affinity against the antibody mutants with heavy chain H:APFF ALTH” value [1] was roughly 10 fold.

B5: Fab H:APFF VLTH & L6_IGKJ1*01 (Fab, V domains shown)
VH: B1 VH with I51V, N52L, S54T, G56H
VL: not shown
notes: Fab, kappa light chain; also called H:APPF VLTH; H:APFF VLTH & L:wt
For B5, the Kd [6] was 1 to 10 nM.

B6: Fab H:APFF G56A & L:NDH (Fab, V domains shown)
VH: B1 VH with G56A
VL: B1 VL
notes: Fab, kappa light chain
B6 was tested, and the “fold greater affinity against H:APFF & L:wt” value [1] was 8 fold.

B7: Fab H:APFF LTH & L6_IGKJ1*01 (Fab, V domains shown)
VH: B1 VH with N52L, S54T, G56H
VL: not shown
notes: Fab, kappa light chain; also called H:APFF LTH & L:wt
For B7, the Kd [6] was 1 to 10 nM.

B8: Fab VH1-46_IGHD6-6*01_IGHJ1*01 S102A/S103P/S104F/H111F I51E/N52L/S54T/G56H & L6_IGKJ1*01 (Fab, V domains shown)
VH: B1 VH with I51E, N52L, S54T, G56H
VL: not shown
notes: Fab made in E. coli: VH on CH1 with His6 and Flag tags (Plasmid A), VL on kappa CL (Plasmid C); also called H: APFF ELTH & L: wt
With B8 the “ELISA absorbance at 450 nm” value [7] was 2.33 A450, the “ELISA absorbance at 450 nm” value [8] was 2.17 A450 and the “ELISA absorbance at 450 nm” value [2] was 2.29 A450. For the same binder, the “ELISA absorbance at 450 nm” value [9] was 0.402 A450, the “ELISA absorbance at 450 nm” value [10] was 1.98 A450 and the “ELISA absorbance at 450 nm” value [11] was 2.17 A450. The “ELISA absorbance at 450 nm” value [12] was 2.29 A450 and the “ELISA absorbance at 450 nm” value [13] was 1.01 A450.

B9: Fab VH1-46_IGHD6-6*01_IGHJ1*01 S102A/S103P/S104F/H111F I51V/N52L/S54T/G56H & L6_IGKJ1*01 S28N/S30D/S31H (Fab, V domains shown)
VH: B1 VH with I51V, N52L, S54T, G56H
VL: B1 VL
notes: Fab made in E. coli: VH on CH1 with His6 and Flag tags (Plasmid A), VL on kappa CL (Plasmid C); also called H: APFF VLTH & L: NDH
For B9, the “ELISA absorbance at 450 nm” value [2] was 0.979 A450, the “ELISA absorbance at 450 nm” value [3] was 0.288 A450 and the “ELISA absorbance at 450 nm” value [4] was 0.608 A450. The “ELISA absorbance at 450 nm” value [5] was 0.776 A450, the Kd [14] was 2.7 nM and the koff [14] was 0.00113 s⁻¹. The kon [14] was 430000 M⁻¹ s⁻¹.
